Data on 131 substances can be found in the supplement of paper PMC12042874.

The data set is described as follows: amyloid nucleation score (Sup35N fusion, yeast selection) (log enrichment); library NNK3; higher = more nucleation; inactive = no reads after selection. A digest of the protocol: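 Peptides of 20 random codons fused to Sup35N were expressed in psi-negative yeast, induced 24 hours with 100 μM copper sulfate, then grown 7 days at 30°C on medium lacking adenine and uracil. Input and output plasmid inserts were Illumina-sequenced. Nucleation score is the DiMSum log enrichment of output over input reads, centred on the mode score of non-aggregating sequences, excluding sequences with under 100 input reads. Random libraries had three technical output replicates.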

± gives the uncertainty stated by the source.

MVYIKILHFVILMSMHFN: the amyloid nucleation score result is “inactive”.

With IKAPRFYAPFLLIVSQWVST, the amyloid nucleation score result is “inactive”.

SFSLYLFPSRGLAPLPTAWL: the amyloid nucleation score turned out to be 1.86 ± 0.089.

As to ITSVTLITNKSKSGIGKVGS, the amyloid nucleation score entry is “inactive”.

With FDNFADNRLNKVSYKYQT, the amyloid nucleation score is 1.27 ± 0.12. As for RMILNMCCTITDRKCHSVSD, the figure is 2.39 ± 0.055; as for IWTTPHVCPNLMMSARGCRL, “inactive”. For SLEGTYGHLRQELTTSPNAH the value was 0.907 ± 0.17; for IVQLHDIVDS, -0.168 ± 0.9; for TSILEWVSFDGSM, “inactive”.

Take GIFIKFGYR: the amyloid nucleation score entry is “inactive”. With WVNKEDESVVWYIWFGIECC, the amyloid nucleation score result is “inactive”. For LTLSMKFTWYFYVSIYSGQG, the amyloid nucleation score entry is “inactive”. For KEGDFPLSSSRYSYTNYLVI the value was “inactive”; for FWFFYNICRMLKSVT, “inactive”. As for PYGLLQFNG, the entry is “inactive”. LLGSFEGLIALYSGGWMAYR: the amyloid nucleation score was -0.108 ± 0.77. On to VLQYECHVDMCRGRWSLGAI, for which the amyloid nucleation score entry was “inactive”. Take LLIRVLYLWSLESISNG: the amyloid nucleation score result was “inactive”. For YNRMHMDCTKRIE the value was “inactive”; for HSFVSWTRLT, “inactive”.

NFQTNGTLKHNN: the amyloid nucleation score entry was “inactive”. For EVSGYINMR the value was “inactive”; for YTRSCSMRLF, “inactive”; for SRIAFKVDFASCRARMCGVE, “inactive”. For SLSWHK the value was “inactive”; for HGHDNVEDTCLRFSPAGLST, “inactive”. As for ASACPRLWVRLCLGCVIPKE, the entry is “inactive”; as for SIGTKLASCLYLKR, “inactive”; as for VRAGSLYHCVRNPISRGLAV, -0.57 ± 1.8. On to IFVVYFGISTIRNT, for which the amyloid nucleation score is 1.32 ± 0.097.

As for FVVWCDVTGS, the amyloid nucleation score entry was “inactive”. For MQTNCFRMAVYFAQVRLS the value was “inactive”; for EFLGFCFPIAGYFLKDEKIG, “inactive”. Turning to PYGICNLKF, the amyloid nucleation score result is “inactive”.

CGPHTSYRTMIVLNIRYNFY showed an amyloid nucleation score of 1.46 ± 0.099. Turning to IRSPWTSRAVCGGADV, the amyloid nucleation score entry was “inactive”. As for AVFRLSSTISECDLHACAPV, the amyloid nucleation score entry was “inactive”. For FMSSFISMYFASAFHYAMWH the value was “inactive”; for SSHGSRGITVDT, “inactive”; for RLVNVNDTGVLDVSVITRCS, 0.207 ± 0.6. GMVNVARRKMSGLR returned an amyloid nucleation score of 1.09 ± 0.16. As for GIIVLLVPETQCRCFGDLIR, the entry is “inactive”; as for DSFSTDCVFYEIMCSEVRLA, “inactive”; as for SPRRH, “inactive”. On to GLYKNK, for which the amyloid nucleation score entry was “inactive”. As to LTFGTCFGPYYGVYPNLFIM, the amyloid nucleation score entry is “inactive”.

In the case of LSAFVQDVLNVIQMLTEREF, the amyloid nucleation score entry was “inactive”. As for GNPRNMTVDDSDGKSFYFFY, the entry is “inactive”; as for TLSWLRPPPSRPLLFHEVSW, -0.246 ± 0.8; as for QNPTWC, “inactive”. HSRYLMQLYVNSFSRFD registered an amyloid nucleation score of 1.28 ± 0.12.

For the substance RSTYTSFRARWKRRANGSGW, the amyloid nucleation score result was “inactive”. For MLISERIFQYTCGNYS the value was 2.09 ± 0.085.

As to FVEYSSVQYAACNLDRLFLF, the amyloid nucleation score result is “inactive”.

For the substance TAKGVKSDLECGCNVFRTEC, the amyloid nucleation score is 0.457 ± 0.15. For HVTSVMIFIIASIMYVEIKY the value was 0.339 ± 0.34.

As for IVKVLFNSFGGWWYAHGLYV, the amyloid nucleation score entry was “inactive”. As for ESCRWLLVFKMVCWQ, the entry is “inactive”; as for YMWKVVDCSPVVSTS, -0.352 ± 1.3. For SLGEKMNVASLQAVMSC the value was “inactive”. As for CHEKANQELRHPYGCECVFV, the entry is “inactive”; as for ERVKWDKRMHPVDHWHVTVS, “inactive”. As for VKISMNYKTQLTWLLFAWIL, the amyloid nucleation score result is “inactive”.

Consider NVNMYIDFVLIDMNWQNCTQ, for which the amyloid nucleation score stood at 3.05 ± 0.062.

With LMRNSMLKTCFRSTAFH, the amyloid nucleation score result is “inactive”. In the case of PYWIGNIFVEPSSD, the amyloid nucleation score entry was “inactive”. On to DGVALFNVVRFVVGIDILLI, for which the amyloid nucleation score result was “inactive”.

On to RFISLVRNYFFTCCRRRSMF, for which the amyloid nucleation score result was “inactive”. RSTVLIPWVDNTCTDQSSGW displayed an amyloid nucleation score of 0.25 ± 0.21. With TSYNFTQLTPILVKLMQMNL, the amyloid nucleation score entry was “inactive”. As for GLTVVSE, the entry is “inactive”; as for ISSAYPRNICRVCGPRTR, “inactive”; as for RFSYVVTRSG, “inactive”.

Regarding ACGGCHYKRAYMQLGLMRLK, the amyloid nucleation score result is “inactive”.

Take YDSRFTKLTCQSPINWHKEV: the amyloid nucleation score result was “inactive”.

In the case of VMLNNCRGYLANCDSCSW, the amyloid nucleation score entry was “inactive”. For VLKLRVKVNQVVVDYVLESG the value was “inactive”; for GRYAEETRYRVFLLIVMTRR, “inactive”. Take LPPFAWPRMIPWWGRAKVIS: the amyloid nucleation score entry was “inactive”. As for TYFLSDWWRDRSNWLWFLAH, the entry is “inactive”; as for LIRTARSLYWAYVHLAVSWR, “inactive”. PNYPDLYHFLICSLCSSFVT had an amyloid nucleation score of 1.84 ± 0.076. For TNYICCSFRFPWNHSYV the value was 3.4 ± 0.061; for GRVMVWIFIFMMGGMQANLS, “inactive”; for SAIRMPAYDYTWRGLYGDKK, “inactive”. As for TGYAFFHEAS, the entry is “inactive”; as for VASIFRVYAVVGWSVVLVGV, “inactive”. For FPIDC, the amyloid nucleation score worked out at 0.082 ± 0.58. For NRYGGSAQGHPMWVTTSREW the value was “inactive”; for IGRTLSHSATRLVCTDPFRR, “inactive”. As for ECDHSCGRWNWIN, the amyloid nucleation score result was “inactive”. For YIILCSIFSYWENMGHI the value was 2.78 ± 0.08.

Regarding RGLHLGSSTWIPTAREC, the amyloid nucleation score amounted to 0.678 ± 0.19. For SKAYKAYNVLRLISI the value was “inactive”. In turn, VDVAVFLEMLYCWCRDGFTR gave an amyloid nucleation score of 1.79 ± 0.1. As for MISYELVNALEIISNLIFMW, the entry is “inactive”. For LYNGELNLMVRSNAEFMGSG the value was “inactive”.

With ANGLAGDYE, the amyloid nucleation score was -0.578 ± 1.3. As for NDFSKGLCMWTFNWNDTYDQ, the figure is 1.75 ± 0.077.

On to VFMGQDLWMSLGAEDEDLAW, for which the amyloid nucleation score result was “inactive”.

Regarding DLTDNVFYWSRNTIDEVRVR, the amyloid nucleation score result was “inactive”. As for RVGCVQYQFRRCRGWKSNKA, the entry is “inactive”. As for TTFIN, the entry is “inactive”; as for LTRVTMGYIAEIQWNFMSKN, 1.56 ± 0.066.

Turning to SLSVSYDVLWRIFSGNNGNW, the amyloid nucleation score turned out to be 1.25 ± 0.083.

As to LARHSCSSNVYGNLQRTFFG, the amyloid nucleation score entry is “inactive”. As for HLRCFKMKFNSHFLVWGAGA, the entry is “inactive”. For KSCLCLSPRGFGTDSAAVKW the value was 0.966 ± 0.12. HGLRALLRSLSLYLVLCFTV: the amyloid nucleation score entry is “inactive”. Regarding TVLVAGIGCEWSMGESTAMW, the amyloid nucleation score result is “inactive”. For LMQDLENVS the value was “inactive”; for EDCRSR, “inactive”. As for STNWSILFQDHSTTFFLMCA, the figure is 0.279 ± 0.2; as for YLIMSVSYSASTCLIKMAMV, “inactive”.

Consider GLNMVWFVHLSVNV, for which the amyloid nucleation score result was “inactive”. As for RYGVWLTCYVRAKLM, the amyloid nucleation score entry was “inactive”. For NYPLRFLGKLAAT the value was “inactive”; for GMSCWGSMQWNVL, 0.766 ± 0.17. For FGRIGSYWTMVQ the value was “inactive”. Turning to VFFSWPMARKCEGSEDHPNF, the amyloid nucleation score was 0.005 ± 0.98. For SSMCVLCWTIVSVRNEAVEG the value was 1.9 ± 0.098; for TGFLSIHLSWTYTCYMIVER, “inactive”; for LFVLSTKSLFP, 1.39 ± 0.089.

For CYIVGVVGLSTDWFMSGHSD, the amyloid nucleation score amounted to 0.035 ± 0.9.

For the substance QDPLVT, the amyloid nucleation score entry was “inactive”. For QLVRQMTKGVG the value was “inactive”; for RISYKVRHTSNLVKTWCYTW, “inactive”; for PEPHLKSEKYNCSGDWPLPL, “inactive”. As for PYIRNYSCSGSNQYLWDTSD, the entry is “inactive”; as for FKSLLSRISHFKFASGWYVH, “inactive”.
